This note sets out measurements from US8916684B2, “Bioengineered protein pores” (Syracuse University, priority 2010, dated 2014).

A short description of the assay: Single-channel electrical recordings of protein pores in planar lipid bilayers. The assay is classed as biochemical. The note with it: +40 mV.
[1] abbreviates: 1 M KCl, 10 mM potassium phosphate, pH 7.4.

B1: WT-FhuA: wild-type E. coli ferric hydroxamate uptake component A, 714-residue β-barrel outer membrane protein (protein, UniProt P06971 34-747, looked up)
Ferrichrome outer membrane …: AVEPKEDTITVTAAPAPQESAWGPAATIAARQSATGTKTDTPIQKVPQSISVVTAEEMALHQPKSVKEALSYTPGVSVGTRGASNTYDHLIIRGFAAEGQSQNNYLNGLKLQGNFYNDAVIDPYMLERAEIMRGPVSVLYGKSSPGGLLNMVSKRPTTEPLKEVQFKAGTDSLFQTGFDFSDSLDDDGVYSYRLTGLARSANAQQKGSEEQRYAIAPAFTWRPDDKTNFTFLSYFQNEPETGYYGWLPKEGTVEPLPNGKRLPTDFNEGAKNNTYSRNEKMVGYSFDHEFNDTFTVRQNLRFAENKTSQNSVYGYGVCSDPANAYSKQCAALAPADKGHYLARKYVVDDEKLQNFSVDTQLQSKFATGDIDHTLLTGVDFMRMRNDINAWFGYDDSVPLLNLYNPVNTDFDFNAKDPANSGPYRILNKQKQTGVYVQDQAQWDKVLVTLGGRYDWADQESLNRVAGTTDKRDDKQFTWRGGVNYLFDNGVTPYFSYSESFEPSSQVGKDGNIFAPSKGKQYEVGVKYVPEDRPIVVTGAVYNLTKTNNLMADPEGSFFSVEGGEIRARGVEIEAKAALSASVNVVGSYTYTDAEYTTDTTYKGNTPAQVPKHMASLWADYTFFDGPLSGLTLGTGGRYTGSSYGDPANSFKVGSYTVVDALVRYDLARVGMAGSNVALHVNNLFDREYVASCFNTYGCFWGAERQVVATATFRF
Regarding B1, the “all-points histogram current amplitude peak” value was around 12.5 pA. In addition, under setting [1], the Conductance is listed as 0.3 ± 0.2 nS and the single-channel conductance is 0.3±0.2 nS.
